Data set [1] addresses factor Va (UniProt P12259).
Data set [2] concerns the target T1, factor Va, P12259.
T1 chain 1: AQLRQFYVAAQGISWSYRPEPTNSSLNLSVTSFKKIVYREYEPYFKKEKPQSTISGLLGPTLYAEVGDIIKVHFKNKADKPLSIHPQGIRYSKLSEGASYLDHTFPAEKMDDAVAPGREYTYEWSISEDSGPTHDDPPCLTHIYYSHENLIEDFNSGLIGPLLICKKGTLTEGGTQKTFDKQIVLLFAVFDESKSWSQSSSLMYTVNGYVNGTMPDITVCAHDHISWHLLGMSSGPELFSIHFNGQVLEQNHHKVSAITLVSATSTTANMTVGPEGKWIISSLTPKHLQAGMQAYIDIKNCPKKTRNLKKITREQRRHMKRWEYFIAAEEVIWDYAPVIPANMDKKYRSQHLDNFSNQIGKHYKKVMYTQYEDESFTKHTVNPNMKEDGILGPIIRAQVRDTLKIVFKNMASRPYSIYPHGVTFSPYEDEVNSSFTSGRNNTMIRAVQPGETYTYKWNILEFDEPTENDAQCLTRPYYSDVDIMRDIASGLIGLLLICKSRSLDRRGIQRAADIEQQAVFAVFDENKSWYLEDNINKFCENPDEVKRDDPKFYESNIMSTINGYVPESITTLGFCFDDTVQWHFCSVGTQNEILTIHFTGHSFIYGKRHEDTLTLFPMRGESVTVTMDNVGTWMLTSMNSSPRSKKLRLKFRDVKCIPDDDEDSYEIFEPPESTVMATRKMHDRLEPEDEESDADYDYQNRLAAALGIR
T1 chain 2: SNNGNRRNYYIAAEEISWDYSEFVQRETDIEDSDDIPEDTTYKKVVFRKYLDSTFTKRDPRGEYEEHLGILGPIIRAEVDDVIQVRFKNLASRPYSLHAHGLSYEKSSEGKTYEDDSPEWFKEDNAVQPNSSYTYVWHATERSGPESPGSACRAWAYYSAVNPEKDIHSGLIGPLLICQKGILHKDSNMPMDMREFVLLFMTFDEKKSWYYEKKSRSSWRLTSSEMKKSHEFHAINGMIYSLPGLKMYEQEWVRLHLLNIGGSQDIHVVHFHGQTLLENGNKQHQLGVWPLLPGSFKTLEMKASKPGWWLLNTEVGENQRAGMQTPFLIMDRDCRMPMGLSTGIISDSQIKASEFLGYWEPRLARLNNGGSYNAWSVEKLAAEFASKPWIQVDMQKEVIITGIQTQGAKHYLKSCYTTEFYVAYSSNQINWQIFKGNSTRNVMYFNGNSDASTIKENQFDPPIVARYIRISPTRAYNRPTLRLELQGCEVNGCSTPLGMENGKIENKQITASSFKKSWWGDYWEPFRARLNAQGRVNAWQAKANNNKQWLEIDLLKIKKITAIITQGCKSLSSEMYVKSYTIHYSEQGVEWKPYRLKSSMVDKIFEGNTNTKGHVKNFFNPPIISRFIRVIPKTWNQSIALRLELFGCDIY

Take recombinant factor Xa variant Ile16→Gly: the “Km for peptidyl substrates after assembly into prothrombinase” value in data set [1] is given as “even the Km value for I235G was almost completely restored (3-fold increased compared to wild-type FXa) when assembled in prothrombinase”.

B1: recombinant factor Xa variant Val17→Ala (protein)
chain 1: ANSFLEEMKKGHLERECMEETCSYEEAREVFEDSDKTNEFWNKYKDGDQCETSPCQNQGKCKDGLGEYTCTCLEGFEGKNCELFTRKLCSLDNGDCDQFCHEEQNSVVCSCARGYTLADNGKACIPTGPYPCGKQTLER
chain 2: IAGGQECKDGECPWQALLINEENEGFCGGTILSEFYILTAAHCLYQAKRFKVRVGDRNTEQEEGGEAVHEVEVVIKHNRFTKETYDFDIAVLRLKTPITFRMNVAPACLPERDWAESTLMTQKTGIVSGFGRTHEKGRQSTRLKMLEVPYVDRNSCKLSSSFIITQNMFCAGYDTKQEDACQGDSGGPHVTRFKDTYFVTGIVSWGEGCARKGKYGIYTKVTAFLKWIDRSMKTRGLPKAKSHAPEVITSSPLK
B1: the “Km for peptidyl substrates after assembly into prothrombinase” value in data set [2] was “the assembly of FXaI235L and FXaV236A into prothrombinase almost completely restored the Km for peptidyl substrates”.
